{"source": "patent US20140030245", "proteins": {"B1": {"name": "endogenous Chk1 (protein)", "chain": "MAVPFVEDWDLVQTLGEGAYGEVQLAVNRVTEEAVAVKIVDMKRAVDCPENIKKEICINKMLNHENVVKFYGHRREGNIQYLFLEYCSGGELFDRIEPDIGMPEPDAQRFFHQLMAGVVYLHGIGITHRDIKPENLLLDERDNLKISDFGLATVFRYNNRERLLNKMCGTLPYVAPELLKRREFHAEPVDVWSCGIVLTAMLAGELPWDQPSDSCQEYSDWKEKKTYLNPWKKIDSAPLALLHKILVENPSARITIPDIKKDRWYNKPLKKGAKRPRVTSGGVSESPSGFSKHIQSNLDFSPVNSASSEENVKYSSSQPEPRTGLSLWDTSPSYIDKLVQGISFSQPTCPDHMLLNSQLLGTPGSSQNPWQRLVKRMTRFFTKLDADKSYQCLKETCEKLGYQWKKSCMNQVTISTTDRRNNKLIFKVNLLEMDDKILVDFRLSKGDGLEFKRHFLKIKGKLIDIVSSQKVWLPAT"}}, "target": "T1, Myc-tagged Chk1 C-terminal fragment C5, O14757", "T1 chain": "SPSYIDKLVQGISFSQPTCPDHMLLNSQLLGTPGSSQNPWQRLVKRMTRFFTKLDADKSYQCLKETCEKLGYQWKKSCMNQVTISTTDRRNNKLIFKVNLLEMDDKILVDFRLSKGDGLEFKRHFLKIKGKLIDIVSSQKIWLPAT"}
{"protein": "B1", "values": [{"measurement": "phosphorylation of endogenous Chk1 proteins (immunoblot, HeLa)", "value": "overexpression of the C5 fragment and to a lesser extent, the entire C-terminus, induced strong phosphorylation of endogenous Chk1 proteins"}, {"measurement": "phosphorylation of endogenous Chk1 under normal growth conditions (immunoblot, HEK293T)", "value": "expression of the C5 fragment, and to a lesser extent, the C6 fragment, but not other small fragments, induced phosphorylation of endogenous Chk1 under normal growth conditions"}]}
